Data: paper PMC3858840
Where two headings read alike, the source gives them in different places.

What was measured:
[1] = biological target: FERM domain of human moesin (residues 1–346) (human) (UniProt P26038); assay: other fluorescence titration
[2] = biological target: TMR-CLS: TMR-labeled CLS_S329C (transmembrane and cytoplasmic domains of human L-selectin), in liposomes (human); assay: other fluorescence titration
[3] = biological target: TMR-CLS: TMR-labeled CLS_S329C (transmembrane and cytoplasmic domains of human L-selectin), in liposomes (human); assay: other fluorescence titration; remark: listed apart in the source
[4] = biological target: TMR-CLS: TMR-labeled CLS_S329C (transmembrane and cytoplasmic domains of human L-selectin), in liposomes (human); assay: other fluorescence titration; remark: listed apart in the source
[5] = biological target: TMR-CLS: TMR-labeled CLS_S329C (transmembrane and cytoplasmic domains of human L-selectin), in liposomes (human); assay: other fluorescence titration; remark: listed apart in the source
[6] = biological target: TMR-ARR18, ARR18 with the N-terminal residue changed to cysteine and labelled with tetramethylrhodamine-5-maleimide (human); assay: other fluorescence titration
[7] = biological target: TMR-CLS: TMR-labeled CLS_S329C (transmembrane and cytoplasmic domains of human L-selectin), in liposomes (human); assay: other fluorescence titration; remark: listed apart in the source
[8] = biological target: TMR-CLS: TMR-labeled CLS_S329C (transmembrane and cytoplasmic domains of human L-selectin), in liposomes (human); assay: other fluorescence titration; remark: listed apart in the source
[9] = biological target: moesin-FERM/TMR-CLS complex in 15% POPS/85% POPC liposome (human) (UniProt P26038); assay: other fluorescence titration
[10] = biological target: L-selectin cytoplasmic peptide cytoplasmic domain (Homo sapiens) (UniProt P14151); details: cited from earlier work

Chain of FERM domain of human moesin (residues 1–346) (P26038 1-346): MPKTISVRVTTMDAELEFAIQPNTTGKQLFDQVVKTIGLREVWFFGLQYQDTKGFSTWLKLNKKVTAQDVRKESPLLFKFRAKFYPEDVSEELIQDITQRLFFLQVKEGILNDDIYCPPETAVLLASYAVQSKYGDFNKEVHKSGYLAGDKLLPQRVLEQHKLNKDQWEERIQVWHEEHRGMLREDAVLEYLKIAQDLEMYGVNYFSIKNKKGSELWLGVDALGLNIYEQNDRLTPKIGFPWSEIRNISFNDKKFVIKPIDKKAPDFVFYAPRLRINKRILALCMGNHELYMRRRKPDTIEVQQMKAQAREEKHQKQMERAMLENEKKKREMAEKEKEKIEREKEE
Chain of FERM domain of human moesin (residues 1–346) (human) (P26038 1-346): as above
Chain of moesin N-terminal fragment 1-296 (P26038 1-296): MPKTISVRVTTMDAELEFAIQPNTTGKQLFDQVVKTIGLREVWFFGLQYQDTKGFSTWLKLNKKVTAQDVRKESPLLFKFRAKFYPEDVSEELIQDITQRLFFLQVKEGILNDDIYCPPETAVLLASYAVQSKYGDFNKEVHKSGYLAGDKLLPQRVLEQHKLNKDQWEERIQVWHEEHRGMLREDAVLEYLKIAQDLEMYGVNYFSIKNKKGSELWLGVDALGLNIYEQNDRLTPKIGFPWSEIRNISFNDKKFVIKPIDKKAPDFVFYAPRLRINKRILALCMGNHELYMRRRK

## ARR18, cytoplasmic domain peptide of human L-selectin (residues Ala317–Tyr334)
[1]
  Kd: 196 nM

## FERM domain of human moesin (residues 1–346) (from UniProt P26038 1-346) (domain or fragment)
[2]
  Kd: 70 nM
[3]
  Kd: 96 nM
[4]
  Kd: 133 nM
[5]
  Kd: 302 nM
[6]
  Kd: 214 nM
[7]
  Kd: 74 nM
[8]
  Kd: 67 nM

## calmodulin (CaM), wild type (from UniProt P0DP23 1-149) (natural protein)
[9]
  Kd: 800 nM

## moesin N-terminal fragment 1-296 (from UniProt P26038)
[10]
  Kd: 40 nM
